Literature values, collected in paper PMC5606850.

Target: HTLV-1 nucleocapsid NTD (Human T-cell leukemia virus type 1) (UniProt P03345)
Sequence (P03345 345-395): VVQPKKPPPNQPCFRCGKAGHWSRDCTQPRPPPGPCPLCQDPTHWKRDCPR

Sequence of HTLV-1 nucleocapsid CTD (P03345 396-429): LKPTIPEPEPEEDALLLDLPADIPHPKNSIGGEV

HTLV-1 nucleocapsid CTD (from UniProt P03345)
Kd: 200 nM
